Laboratory results published in US20250026792A1, “SELF-ASSEMBLING PEPTIDES WITH HYALURONIC ACID BINDING DOMAINS AND METHODS OF USE THEREOF” (Northwestern University, priority 2022, published 2025).
The star is where a group is joined. Biotin = O=C1N[C@H]2[C@H](CS[C@H]2CCCCC(=O)*)N1

T1: elastin (Bos taurus, UniProt P04985)
T1 construct: purchased Sigma-Aldrich
T1 sequence (P04985 27-747): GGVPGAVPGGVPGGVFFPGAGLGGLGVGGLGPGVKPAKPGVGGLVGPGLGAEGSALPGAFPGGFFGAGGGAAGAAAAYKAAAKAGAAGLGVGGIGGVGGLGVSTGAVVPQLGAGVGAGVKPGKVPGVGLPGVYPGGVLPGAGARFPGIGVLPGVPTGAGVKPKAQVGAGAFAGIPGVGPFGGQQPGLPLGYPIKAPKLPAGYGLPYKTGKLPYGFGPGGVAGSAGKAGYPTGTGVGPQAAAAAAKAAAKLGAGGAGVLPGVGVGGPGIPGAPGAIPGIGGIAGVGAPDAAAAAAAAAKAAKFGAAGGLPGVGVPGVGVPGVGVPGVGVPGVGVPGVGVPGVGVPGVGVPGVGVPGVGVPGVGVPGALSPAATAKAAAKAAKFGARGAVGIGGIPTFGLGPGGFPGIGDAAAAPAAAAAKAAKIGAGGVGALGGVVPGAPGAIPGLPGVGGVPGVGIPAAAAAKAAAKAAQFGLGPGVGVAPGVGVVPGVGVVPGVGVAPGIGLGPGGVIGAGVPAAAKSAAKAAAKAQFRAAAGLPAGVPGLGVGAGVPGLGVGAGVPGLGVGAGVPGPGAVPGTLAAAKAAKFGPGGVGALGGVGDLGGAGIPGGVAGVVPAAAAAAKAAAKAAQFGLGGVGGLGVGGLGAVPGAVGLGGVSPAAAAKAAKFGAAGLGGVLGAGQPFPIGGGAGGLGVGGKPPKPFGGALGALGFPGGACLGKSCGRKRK

T2: elastin (bovine) (bovine, UniProt P04985 27-747, limits assumed)
T2 construct: Coated and dried on plates at 10 ug/cm2
T2 sequence (looked up): T1 sequence (P04985 27-747)

T3: collagen type III (human) (human, UniProt P02461 154-1221)
T3 construct: III (human)'; Coated and dried on plates at 10 ug/cm2; also called collagen III
T3 sequence (looked up): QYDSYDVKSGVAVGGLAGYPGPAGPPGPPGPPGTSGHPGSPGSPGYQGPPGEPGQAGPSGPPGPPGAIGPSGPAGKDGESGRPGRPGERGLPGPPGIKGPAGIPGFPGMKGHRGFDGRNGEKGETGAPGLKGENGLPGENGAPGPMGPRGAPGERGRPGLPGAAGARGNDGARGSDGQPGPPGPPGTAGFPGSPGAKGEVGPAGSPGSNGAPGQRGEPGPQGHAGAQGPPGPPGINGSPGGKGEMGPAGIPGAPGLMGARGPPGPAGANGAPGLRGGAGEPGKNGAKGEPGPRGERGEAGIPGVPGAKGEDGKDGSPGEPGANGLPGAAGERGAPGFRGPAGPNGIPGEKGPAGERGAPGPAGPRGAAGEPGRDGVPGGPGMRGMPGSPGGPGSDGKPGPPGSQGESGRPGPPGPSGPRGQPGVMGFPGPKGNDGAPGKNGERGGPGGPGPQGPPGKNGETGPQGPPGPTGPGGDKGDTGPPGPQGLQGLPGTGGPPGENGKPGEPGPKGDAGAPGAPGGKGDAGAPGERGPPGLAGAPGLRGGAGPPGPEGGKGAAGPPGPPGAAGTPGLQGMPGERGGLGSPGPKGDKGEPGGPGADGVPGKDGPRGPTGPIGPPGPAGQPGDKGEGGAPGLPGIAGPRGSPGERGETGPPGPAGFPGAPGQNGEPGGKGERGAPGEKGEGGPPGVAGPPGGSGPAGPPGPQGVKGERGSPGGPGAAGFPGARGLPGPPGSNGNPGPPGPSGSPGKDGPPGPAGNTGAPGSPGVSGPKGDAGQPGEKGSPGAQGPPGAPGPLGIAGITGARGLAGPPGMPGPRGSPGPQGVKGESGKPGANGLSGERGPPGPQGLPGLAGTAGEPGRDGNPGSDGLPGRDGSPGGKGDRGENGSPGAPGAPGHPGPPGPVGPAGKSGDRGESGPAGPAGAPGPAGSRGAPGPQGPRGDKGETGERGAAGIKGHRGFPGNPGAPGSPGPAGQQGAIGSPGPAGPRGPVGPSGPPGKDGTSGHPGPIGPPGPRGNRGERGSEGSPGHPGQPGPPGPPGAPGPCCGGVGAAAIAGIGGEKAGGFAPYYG

B1: Peptide 17x-3 (peptide)
peptide: Biotin-KTKATVLIKNKQKSKNALKQKIVLLSK-OH
SMILES: CC[C@H](C)[C@H](NC(=O)[C@H](CC(C)C)NC(=O)[C@@H](NC(=O)[C@@H](NC(=O)[C@H](C)NC(=O)[C@H](CCCCN)NC(=O)[C@@H](NC(=O)[C@H](CCCCN)NC(=O)CCCC[C@@H]1SC[C@@H]2NC(=O)N[C@@H]21)[C@@H](C)O)[C@@H](C)O)C(C)C)C(=O)N[C@@H](CCCCN)C(=O)N[C@@H](CC(N)=O)C(=O)N[C@@H](CCCCN)C(=O)N[C@@H](CCC(N)=O)C(=O)N[C@@H](CCCCN)C(=O)N[C@@H](CO)C(=O)N[C@@H](CCCCN)C(=O)N[C@@H](CC(N)=O)C(=O)N[C@@H](C)C(=O)N[C@@H](CC(C)C)C(=O)N[C@@H](CCCCN)C(=O)N[C@@H](CCC(N)=O)C(=O)N[C@@H](CCCCN)C(=O)N[C@H](C(=O)N[C@H](C(=O)N[C@@H](CC(C)C)C(=O)N[C@@H](CC(C)C)C(=O)N[C@@H](CO)C(=O)N[C@@H](CCCCN)C(=O)O)C(C)C)[C@@H](C)CC
notes: De novo designed 27-residue peptide, custom synthesized; the biotinylated peptides are used in every experiment; Self-assembles at higher concentrations
B2: Peptide BHP3 (peptide)
peptide: Biotin-TQLRNKYTFLARARNALAVRTKQNIKS-OH
SMILES: CC[C@H](C)[C@H](NC(=O)[C@H](CC(N)=O)NC(=O)[C@H](CCC(N)=O)NC(=O)[C@H](CCCCN)NC(=O)[C@@H](NC(=O)[C@H](CCCNC(=N)N)NC(=O)[C@@H](NC(=O)[C@H](C)NC(=O)[C@H](CC(C)C)NC(=O)[C@H](C)NC(=O)[C@H](CC(N)=O)NC(=O)[C@H](CCCNC(=N)N)NC(=O)[C@H](C)NC(=O)[C@H](CCCNC(=N)N)NC(=O)[C@H](C)NC(=O)[C@H](CC(C)C)NC(=O)[C@H](Cc1ccccc1)NC(=O)[C@@H](NC(=O)[C@H](Cc1ccc(O)cc1)NC(=O)[C@H](CCCCN)NC(=O)[C@H](CC(N)=O)NC(=O)[C@H](CCCNC(=N)N)NC(=O)[C@H](CC(C)C)NC(=O)[C@H](CCC(N)=O)NC(=O)[C@@H](NC(=O)CCCC[C@@H]1SC[C@@H]2NC(=O)N[C@@H]21)[C@@H](C)O)[C@@H](C)O)C(C)C)[C@@H](C)O)C(=O)N[C@@H](CCCCN)C(=O)N[C@@H](CO)C(=O)O
notes: Designed from the 42 residue peptide BH-P; biotinylated synthetic peptide

Key:
[1] = target: T4, collagen type I (Rattus norvegicus, UniProt P02454+P02466); assay: ECM specificity binding test, collagen type I coating; details: 5.0 mg/ml peptide, FIG. 4
T4 construct: purchased Sigma-Aldrich
Description: (§1) Peptides were incubated 24 hours at 37° C. on collagens I-IV, elastin, hyaluronic acid, and Geltrex. Coatings (10 pig/cm^2) were previously dried overnight in milli-Q water. Overall significance was assessed using analysis of variance, with Tukey's multiple comparison post-hoc analysis between ECM groups where n=4.
(§2) Biotinylated peptides were custom synthesized by ABI Scientific, Inc. (Sterling, VA). Uranyl acetate and TEM grids were from Ted Pella, Inc (Redding, CA). Unless specified otherwise, all water used in these experiments was Milli-Q grade. HA (˜1 MDa), collagen types I (rat), II (chicken), III (human), and IV (mouse), elastin (bovine), deuterium oxide (D2O), acetic acid-d4, sodium acetate-d3, 3-(Trimethylsilyl)propionic-2,2,3,3-d6 (DSS-D6) acid sodium salt, and 2,2,2-trifluoroethanol (TFE) and were obtained from Sigma-Aldrich (St. Louis, MO). Streptavidin (Alexa Fluor 488 conjugate) and Geltrex were obtained from Thermo Fisher Scientific Inc. (Waltham, MA). […]
(§3) Hyaluronic acid, collagens I, II, III, and IV, elastin, and Geltrex were coated onto 96-well black plates (medium binding affinity) at 10 μg/cm^2 and were dried in milli-Q water at room temperature. […] The plates were read with a fluorescence microplate reader for fluorescence intensity (Ex 490 nm, Em 525 nm). All data were normalized to the background fluorescence intensity of Streptavidin-488.

[2] = target: T5, collagen type IV (Mus musculus, UniProt P02463+P08122); assay: ECM specificity binding test, collagen type IV coating; details: 5.0 mg/ml peptide, FIG. 4
T5 construct: purchased Sigma-Aldrich
Description: as §1, §2, §3

[3] = target: T1, elastin; assay: ECM specificity binding test, elastin coating; parameters: species or system bovine; details: 5.0 mg/ml peptide, FIG. 4
Description: as §1
Biotinylated peptides were custom synthesized by ABI Scientific, Inc. (Sterling, VA). Uranyl acetate and TEM grids were from Ted Pella, Inc (Redding, CA). Unless specified otherwise, all water used in these experiments was Milli-Q grade. HA (˜1 MDa), collagen types I (rat), II (chicken), III (human), and IV (mouse), elastin (bovine), deuterium oxide (D2O), acetic acid-d4, sodium acetate-d3, 3-(Trimethylsilyl)propionic-2,2,3,3-d6 (DSS-D6) acid sodium salt, and 2,2,2-trifluoroethanol (TFE) and were obtained from Sigma-Aldrich (St. Louis, MO). Streptavidin (Alexa Fluor 488 conjugate) and Geltrex were obtained from Thermo Fisher Scientific Inc. (Waltham, MA). Sodium hyaluronate (5 and 60 KDa) was purchased from Lifecore Biomedical LLC (Chaska, MN). In reference to terminology, N and C termini is used to describe the amino terminal (N) and the carboxyl terminal (C) of the peptide. The biotinylated peptides are used in every experiment.
(§4) Hyaluronic acid, collagens I, II, III, and IV, elastin, and Geltrex were coated onto 96-well black plates (medium binding affinity) at 10 μg/cm^2 and were dried in milli-Q water at room temperature. N-termini biotinylated peptides were added to coated plates at 0, 1, 2.5, 5 and 10 mg/ml overnight at 37° C. in phosphate buffered saline (PBS), pH 7.4, after which the plates were washed three times with PBS. Fluorescent streptavidin-488 (4 μg/mL) was added to each well and incubated at 37° C. temperature for 24 hours, then thoroughly washed with PBS. The plates were read with a fluorescence microplate reader for fluorescence intensity (Ex 490 nm, Em 525 nm). All data were normalized to the background fluorescence intensity of Streptavidin-488.

[4] = tested on: extracellular matrix (ECM) components: Collagen type I, II, III and IV, elastin, hyaluronic acid and Geltrex; assay: ECM specificity binding test, whole panel; details: 5.0 mg/ml peptide, FIG. 4
[5] = Circular dichroism (CD) of peptides; format: physicochemical; details: 20 mM Sodium Cacodylate; for Ellipticity ratio (222 nm/208 nm) / Ellipticity 208 nm / Ellipticity 222 nm: 1.25 mg/mL; for Ellipticity 208 nm / Ellipticity 222 nm: CD data given as [θ]M×10^−3; for wavelength Minimum of CD profile: 5.0 mg/mL
[6] = target: T6, collagen type IV (mouse) (mouse, UniProt P02463 28-1669; P08122 26-1707); assay: plate assay: biotinylated peptide on dried ECM coating (10 ug/cm2), streptavidin-488 fluorescence
T6 construct: IV (mouse)'; Coated and dried on plates at 10 ug/cm2; also called collagen IV
Description: as §1, with “pig/cm²)” for “pig/cm^2)”
as §4, with “N-termini” for “Hyaluronic acid, collagens I, II, III, and IV, elastin, and Geltrex were coated onto 96-well black plates (medium binding affinity) at 10 μg/cm^2 and were dried in milli-Q water at room temperature. N-termini”

[7] = target: T2, elastin (bovine); assay: as above
Description: as §1, with “pig/cm²)” for “pig/cm^2)”
as §4, with “N-termini” for “Hyaluronic acid, collagens I, II, III, and IV, elastin, and Geltrex were coated onto 96-well black plates (medium binding affinity) at 10 μg/cm^2 and were dried in milli-Q water at room temperature. N-termini”

[8] = target: T7, collagen type I (rat) (rat, UniProt P02454 152-1207; P02466 86-1125); assay: as above
T7 construct: Coated and dried on 96-well plates at 10 ug/cm2; also called collagen I
Description: as §1, with “pig/cm²)” for “pig/cm^2)”
as §4, with “N-termini” for “Hyaluronic acid, collagens I, II, III, and IV, elastin, and Geltrex were coated onto 96-well black plates (medium binding affinity) at 10 μg/cm^2 and were dried in milli-Q water at room temperature. N-termini”

[9] = target: T3, collagen type III (human); assay: as above
Description: as §1, with “pig/cm²)” for “pig/cm^2)”
as §4, with “N-termini” for “Hyaluronic acid, collagens I, II, III, and IV, elastin, and Geltrex were coated onto 96-well black plates (medium binding affinity) at 10 μg/cm^2 and were dried in milli-Q water at room temperature. N-termini”

T6 sequence (P02463 28-1669, chain 1 of 2): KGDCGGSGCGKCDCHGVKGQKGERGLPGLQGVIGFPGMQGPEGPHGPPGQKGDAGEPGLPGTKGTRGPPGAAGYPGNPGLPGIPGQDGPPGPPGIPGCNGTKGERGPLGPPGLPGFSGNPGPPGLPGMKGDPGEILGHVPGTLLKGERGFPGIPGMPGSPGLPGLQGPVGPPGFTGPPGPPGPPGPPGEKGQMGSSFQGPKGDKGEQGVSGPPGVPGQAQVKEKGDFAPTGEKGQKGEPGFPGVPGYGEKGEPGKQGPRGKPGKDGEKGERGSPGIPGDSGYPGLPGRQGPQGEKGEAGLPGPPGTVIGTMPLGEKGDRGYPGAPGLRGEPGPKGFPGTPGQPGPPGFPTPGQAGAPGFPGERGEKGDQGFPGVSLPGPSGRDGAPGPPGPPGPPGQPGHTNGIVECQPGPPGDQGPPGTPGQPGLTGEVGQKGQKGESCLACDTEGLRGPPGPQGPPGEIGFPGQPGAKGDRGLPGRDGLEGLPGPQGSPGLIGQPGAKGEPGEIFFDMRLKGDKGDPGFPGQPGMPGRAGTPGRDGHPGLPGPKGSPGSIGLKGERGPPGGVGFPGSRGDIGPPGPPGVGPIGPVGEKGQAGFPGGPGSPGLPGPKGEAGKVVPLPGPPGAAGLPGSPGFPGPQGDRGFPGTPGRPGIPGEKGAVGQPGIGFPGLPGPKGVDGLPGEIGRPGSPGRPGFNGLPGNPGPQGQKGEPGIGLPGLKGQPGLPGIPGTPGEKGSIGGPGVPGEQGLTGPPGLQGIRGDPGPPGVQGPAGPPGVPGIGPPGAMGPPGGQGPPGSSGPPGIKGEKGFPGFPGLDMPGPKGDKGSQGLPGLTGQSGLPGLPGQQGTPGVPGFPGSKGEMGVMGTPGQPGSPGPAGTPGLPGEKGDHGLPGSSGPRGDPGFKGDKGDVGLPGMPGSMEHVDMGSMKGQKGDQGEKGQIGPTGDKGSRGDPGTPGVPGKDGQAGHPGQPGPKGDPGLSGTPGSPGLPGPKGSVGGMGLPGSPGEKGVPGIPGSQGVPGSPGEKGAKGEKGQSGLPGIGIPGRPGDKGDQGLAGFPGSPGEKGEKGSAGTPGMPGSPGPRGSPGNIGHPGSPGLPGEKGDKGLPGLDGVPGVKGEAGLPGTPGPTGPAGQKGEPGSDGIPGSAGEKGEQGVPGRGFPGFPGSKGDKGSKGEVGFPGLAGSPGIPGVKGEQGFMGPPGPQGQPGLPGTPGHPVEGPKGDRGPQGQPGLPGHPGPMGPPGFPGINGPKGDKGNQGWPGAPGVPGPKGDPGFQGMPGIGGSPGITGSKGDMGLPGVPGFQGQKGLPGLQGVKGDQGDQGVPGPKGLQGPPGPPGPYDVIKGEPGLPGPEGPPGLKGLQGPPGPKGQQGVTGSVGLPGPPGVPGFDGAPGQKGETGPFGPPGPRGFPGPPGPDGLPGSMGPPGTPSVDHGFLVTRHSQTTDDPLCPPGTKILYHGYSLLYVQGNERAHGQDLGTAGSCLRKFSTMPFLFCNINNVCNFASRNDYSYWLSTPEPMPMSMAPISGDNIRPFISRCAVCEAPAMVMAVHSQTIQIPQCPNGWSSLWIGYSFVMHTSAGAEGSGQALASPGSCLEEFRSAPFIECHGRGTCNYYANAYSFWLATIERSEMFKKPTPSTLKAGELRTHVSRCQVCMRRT
T6 sequence (P08122 26-1707, chain 2 of 2): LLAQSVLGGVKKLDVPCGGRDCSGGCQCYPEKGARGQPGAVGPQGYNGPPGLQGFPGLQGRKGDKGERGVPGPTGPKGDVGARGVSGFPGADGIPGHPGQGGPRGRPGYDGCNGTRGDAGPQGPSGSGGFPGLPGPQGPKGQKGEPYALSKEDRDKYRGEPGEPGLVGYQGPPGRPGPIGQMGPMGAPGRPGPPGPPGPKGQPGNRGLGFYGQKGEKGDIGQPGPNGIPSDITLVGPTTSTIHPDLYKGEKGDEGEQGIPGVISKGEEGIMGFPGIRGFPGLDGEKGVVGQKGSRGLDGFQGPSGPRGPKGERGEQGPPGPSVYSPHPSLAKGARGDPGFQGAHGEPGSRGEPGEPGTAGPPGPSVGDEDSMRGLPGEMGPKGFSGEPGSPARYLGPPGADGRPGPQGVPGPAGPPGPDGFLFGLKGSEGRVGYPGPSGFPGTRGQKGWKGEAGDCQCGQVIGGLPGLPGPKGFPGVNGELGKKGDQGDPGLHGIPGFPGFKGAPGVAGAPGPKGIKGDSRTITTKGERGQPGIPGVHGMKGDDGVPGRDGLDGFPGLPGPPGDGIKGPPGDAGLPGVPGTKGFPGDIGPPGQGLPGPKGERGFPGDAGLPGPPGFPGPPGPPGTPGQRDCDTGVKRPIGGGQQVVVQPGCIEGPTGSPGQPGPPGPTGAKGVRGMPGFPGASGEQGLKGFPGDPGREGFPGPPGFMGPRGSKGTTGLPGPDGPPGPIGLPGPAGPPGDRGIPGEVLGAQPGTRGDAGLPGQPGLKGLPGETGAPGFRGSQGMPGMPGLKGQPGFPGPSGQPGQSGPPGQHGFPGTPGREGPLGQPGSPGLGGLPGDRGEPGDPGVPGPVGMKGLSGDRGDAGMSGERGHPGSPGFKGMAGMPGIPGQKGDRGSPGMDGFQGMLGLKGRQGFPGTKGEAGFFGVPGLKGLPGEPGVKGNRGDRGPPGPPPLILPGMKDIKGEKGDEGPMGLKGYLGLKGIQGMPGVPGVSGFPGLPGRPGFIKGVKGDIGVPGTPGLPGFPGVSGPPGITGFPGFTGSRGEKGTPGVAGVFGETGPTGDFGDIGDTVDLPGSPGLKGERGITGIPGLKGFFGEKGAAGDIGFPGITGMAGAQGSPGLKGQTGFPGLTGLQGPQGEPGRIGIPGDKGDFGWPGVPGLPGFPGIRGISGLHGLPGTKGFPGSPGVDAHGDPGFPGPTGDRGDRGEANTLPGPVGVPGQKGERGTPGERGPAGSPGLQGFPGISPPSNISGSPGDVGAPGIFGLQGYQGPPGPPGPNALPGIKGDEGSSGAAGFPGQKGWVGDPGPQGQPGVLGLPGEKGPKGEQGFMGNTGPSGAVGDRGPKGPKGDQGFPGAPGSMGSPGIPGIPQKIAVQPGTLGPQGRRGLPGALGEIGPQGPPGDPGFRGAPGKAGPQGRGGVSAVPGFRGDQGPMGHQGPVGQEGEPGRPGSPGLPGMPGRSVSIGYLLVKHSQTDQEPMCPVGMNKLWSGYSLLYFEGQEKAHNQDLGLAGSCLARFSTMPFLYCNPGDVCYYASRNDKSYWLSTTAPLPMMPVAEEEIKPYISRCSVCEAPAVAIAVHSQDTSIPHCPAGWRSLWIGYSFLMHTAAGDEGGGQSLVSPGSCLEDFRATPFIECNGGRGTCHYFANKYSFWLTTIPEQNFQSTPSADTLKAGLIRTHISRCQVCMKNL

Molecule	binding to collagen type I [1]	binding to collagen type IV [2]	binding to elastin [3]	binding to the ECMs (for 17x-3: the ECMs other than hyaluronic acid) [4]	Ellipticity ratio (222 nm/208 nm) [5]	Ellipticity 208 nm [5]	Ellipticity 222 nm [5]	wavelength Minimum of CD profile [5] [nm]	Ellipticity ratio (222 nm/208 nm) ([5]; 20% TFE)	Ellipticity 208 nm ([5]; 20% TFE)	Ellipticity 222 nm ([5]; 20% TFE)	wavelength Minimum of CD profile ([5]; 20% TFE) [nm]	binding result [6]	binding result [7]	binding result [8]	binding result [9]
KTKATVKIKNKQKSVNALKQKIVLLSK [Peptide 7c, 17x-3 variant]	predominantly	predominantly	predominantly	moderate binding	0.46	−131	−60.9	225	0.89	−290	−259	224				
B1													no binding (tested: 5.0 mg/ml)	no binding (tested: 5.0 mg/ml)	no binding (tested: 5.0 mg/ml)	no binding (tested: 5.0 mg/ml)
B2													no binding (tested: 5.0 mg/ml)	no binding (tested: 5.0 mg/ml)	no binding (tested: 5.0 mg/ml)	no binding (tested: 5.0 mg/ml)
